Read-outs that look alike come from different tables or passages of the source.
What was measured:
[1] = Ex vivo biodistribution of 177Lu-labeled peptide tetramers in H2009 xenografted SCID mice; details: CB17 SCID, mouse, iv, total radioactivity, H2009 bearing SCID mice; for tissue uptake at 1.5 h / tissue to tissue ratio at 1.5 h: 90 pmol, 90 min p.i.; for tissue uptake at 72 h / tissue to tissue ratio at 72 h: 92 pmol, 3 d p.i.
Description: (§1) The biodistribution of the ^177Lu-labeled peptide conjugates was investigated in severe combined immunodeficiency (SCID) mice bearing subcutaneous xenografts of the αvβ6-integrin expressing human lung adenocarcinoma cell line H2009 on their right shoulders. Two representative time points after i.v. administration (p.i.) were evaluated.
(§2) Analytical HPLC was performed on a Shimadzu (Kyoto, Japan) Prominence HPLC system equipped with either a Dr. Maisch ReproSil Pur C18 AQ 150 × 4.6 mm, 5 μm, 120 Å (AC1) or a Phenomenex Kinetex C18 150 × 4.6 mm 5 μm column (AC2). Semipreparative HPLC was performed on a Shimadzu HPLC system equipped with either a Dr. Maisch ReproSil Pur C18 AQ 250 × 10 mm, 5 μm, 120 Å column with 5 mL min^−1 flow (PC1) or a Dr. Maisch ReproSil Pur C18 150 × 30 mm, 5 μm, 120 Å column with 20 mL min^−1 flow (PC2). Solvents for both systems were water (A) and acetonitrile (B) each supplemented with 0.1% (vol) trifluoroacetic acid (TFA). ESI-MS spectra (positive mode) were recorded on a Shimadzu LC-MS 2020 single quadrupol mass spectrometer. Solvents for MS applications were water (A) and acetonitrile (B) each supplemented with 0.1% (vol) formic acid. The other experimental procedures (determination of log D7.4, cultivation of H2009 human lung adenocarcinoma cells, generation of tumor xenografts in CB17 SCID mice, and biodistribution) were performed as described before.[28] All animal experiments have been carried out according to applicable law and institutional guidelines of Technical University of Munich, and were approved by the responsible local authority (Regierung von Oberbayern). The H2009 cells were regularly authenticated and tested for mycoplasma contamination. DOTPI-tetraazide,[43]FF (previously termed AvB6),[29]FY,[34] and YY (also referred to as Tyr2-alkyne)[36] were synthesized as described previously.

[2] = test system: αvβ6-integrin expressing human lung adenocarcinoma cell line H2009 xenografts; assay: as above; details: H2009 bearing SCID mice
Description: as §1, §2

[3] = H2009 tumor, read-out: Tumor H2009 %IA/g
[4] = adrenals, read-out: Adrenals %IA/g
[5] = heart (myocard), read-out: Heart (myocard) %IA/g
[6] = kidneys, read-out: Kidneys %IA/g
[7] = large intestine (empty), read-out: Large intestine (empty) %IA/g
[8] = pancreas, read-out: Pancreas %IA/g
[9] = small intestine (empty), read-out: Small intestine (empty) %IA/g
[10] = stomach (empty), read-out: Stomach (empty) %IA/g
[11] = tumor/blood, read-out: tumor/organ ratio, Blood
[12] = tumor/heart (myocard), read-out: tumor/organ ratio, Heart (myocard)
[13] = tumor/liver, read-out: tumor/organ ratio, Liver
[14] = tumor/lung, read-out: tumor/organ ratio, Lung
[15] = tumor/pancreas, read-out: tumor/organ ratio, Pancreas
[16] = tumor/spleen, read-out: tumor/organ ratio, Spleen

CC(C)C[C@@H]1NC(=O)[C@H](CC(=O)O)NC(=O)CNC(=O)[C@H](CCCNC(=N)N)NC(=O)[C@H](Cc2ccccc2)NC(=O)[C@H](CCCCNC(=O)CCc2cn(CCCNC(=O)CCP(=O)(O)CN3CCN(CP(=O)(O)CCC(=O)NCCCn4cc(CCC(=O)NCCCC[C@H]5C(=O)N[C@@H](Cc6ccccc6)C(=O)N[C@@H](CCCNC(=N)N)C(=O)NCC(=O)N[C@@H](CC(=O)O)C(=O)N[C@@H](CC(C)C)C(=O)N[C@@H](C)C(=O)N[C@@H](Cc6ccccc6)C(=O)N6CCC[C@@H]6C(=O)N5C)nn4)CCN(CP(=O)(O)CCC(=O)NCCCn4cc(CCC(=O)NCCCC[C@H]5C(=O)N[C@@H](Cc6ccccc6)C(=O)N[C@@H](CCCNC(=N)N)C(=O)NCC(=O)N[C@@H](CC(=O)O)C(=O)N[C@@H](CC(C)C)C(=O)N[C@@H](C)C(=O)N[C@@H](Cc6ccccc6)C(=O)N6CCC[C@@H]6C(=O)N5C)nn4)CCN(CP(=O)(O)CCC(=O)NCCCn4cc(CCC(=O)NCCCC[C@H]5C(=O)N[C@@H](Cc6ccccc6)C(=O)N[C@@H](CCCNC(=N)N)C(=O)NCC(=O)N[C@@H](CC(=O)O)C(=O)N[C@@H](CC(C)C)C(=O)N[C@@H](C)C(=O)N[C@@H](Cc6ccccc6)C(=O)N6CCC[C@@H]6C(=O)N5C)nn4)CC3)nn2)N(C)C(=O)[C@H]2CCCN2C(=O)[C@H](Cc2ccccc2)NC(=O)[C@H](C)NC1=O [Compound 177Lu-Y0, metal not drawn]
tissue uptake at 1.5 h [1, 3]: 3.23 %ID/g | tissue uptake at 72 h [1, 3]: 1.72 %ID/g | tissue uptake at 1.5 h [1, 4]: 1.36 %ID/g | tissue uptake at 72 h [1, 4]: 0.82 %ID/g | tissue uptake at 1.5 h ([1]; blood, read-out: Blood %IA/g): 1.2 %ID/g | tissue uptake at 72 h ([1]; blood, read-out: Blood %IA/g): 0.02 %ID/g | tissue uptake at 1.5 h ([1]; bone, read-out: Bone %IA/g): 1.45 %ID/g | tissue uptake at 72 h ([1]; bone, read-out: Bone %IA/g): 0.42 %ID/g | tissue uptake at 1.5 h [1, 5]: 1.13 %ID/g | tissue uptake at 72 h [1, 5]: 0.43 %ID/g | tissue uptake at 1.5 h [1, 6]: 208 %ID/g | tissue uptake at 72 h [1, 6]: 243 %ID/g | tissue uptake at 1.5 h [1, 7]: 3 %ID/g | tissue uptake at 72 h [1, 7]: 1.19 %ID/g | tissue uptake at 1.5 h ([1]; liver, read-out: Liver %IA/g): 5.03 %ID/g | tissue uptake at 72 h ([1]; liver, read-out: Liver %IA/g): 2.61 %ID/g | tissue uptake at 1.5 h ([1]; lung, read-out: Lung %IA/g): 3.59 %ID/g | tissue uptake at 72 h ([1]; lung, read-out: Lung %IA/g): 1.22 %ID/g | tissue uptake at 1.5 h ([1]; muscle, read-out: Muscle %IA/g): 0.53 %ID/g | tissue uptake at 72 h ([1]; muscle, read-out: Muscle %IA/g): 0.29 %ID/g | tissue uptake at 1.5 h [1, 8]: 0.49 %ID/g | tissue uptake at 72 h [1, 8]: 0.31 %ID/g | tissue uptake at 1.5 h [1, 9]: 1.67 %ID/g | tissue uptake at 72 h [1, 9]: 0.82 %ID/g | tissue uptake at 1.5 h ([1]; spleen, read-out: Spleen %IA/g): 2.22 %ID/g | tissue uptake at 72 h ([1]; spleen, read-out: Spleen %IA/g): 1.58 %ID/g | tissue uptake at 1.5 h [1, 10]: 4.15 %ID/g | tissue uptake at 72 h [1, 10]: 2.63 %ID/g | tissue to tissue ratio at 72 h ([1]; tumor / adrenals, read-out: tumor/organ ratio, Adrenals): 2.1 | tissue to tissue ratio at 72 h ([1]; tumor / bone, read-out: tumor/organ ratio, Bone): 5 | tissue to tissue ratio at 72 h ([1]; tumor / large intestine (empty), read-out: tumor/organ ratio, Large intestine (empty)): 2.1 | tissue to tissue ratio at 72 h ([1]; tumor / muscle, read-out: tumor/organ ratio, Muscle): 8.2 | tissue to tissue ratio at 72 h ([1]; tumor / small intestine (empty), read-out: tumor/organ ratio, Small intestine (empty)): 2.2 | tissue to tissue ratio at 72 h ([1]; tumor / stomach (empty), read-out: tumor/organ ratio, Stomach (empty)): 0.8 | tissue to tissue ratio at 1.5 h ([1]; tumor/adrenals, read-out: tumor/organ ratio, Adrenals): 2.9 | tissue to tissue ratio at 1.5 h [1, 11]: 2.7 | tissue to tissue ratio at 72 h [1, 11]: 97.5 | tissue to tissue ratio at 1.5 h ([1]; tumor/bone, read-out: tumor/organ ratio, Bone): 2.4 | tissue to tissue ratio at 1.5 h [1, 12]: 3 | tissue to tissue ratio at 72 h [1, 12]: 4.3 | tissue to tissue ratio at 1.5 h ([1]; tumor/large intestine (empty), read-out: tumor/organ ratio, Large intestine (empty)): 1.1 | tissue to tissue ratio at 1.5 h [1, 13]: 0.7 | tissue to tissue ratio at 72 h [1, 13]: 0.7 | tissue to tissue ratio at 1.5 h [1, 14]: 0.9 | tissue to tissue ratio at 72 h [1, 14]: 1.5 | tissue to tissue ratio at 1.5 h ([1]; tumor/muscle, read-out: tumor/organ ratio, Muscle): 6 | tissue to tissue ratio at 1.5 h [1, 15]: 6.7 | tissue to tissue ratio at 72 h [1, 15]: 6.3 | tissue to tissue ratio at 1.5 h ([1]; tumor/small intestine (empty), read-out: tumor/organ ratio, Small intestine (empty)): 2 | tissue to tissue ratio at 1.5 h [1, 16]: 1.6 | tissue to tissue ratio at 72 h [1, 16]: 1.1 | tissue to tissue ratio at 1.5 h ([1]; tumor/stomach (empty), read-out: tumor/organ ratio, Stomach (empty)): 0.8 | tumor/organ ratio, Kidneys ([2]; 90 min p.i.): 0.0 | tumor/organ ratio, Kidneys ([2]; 3 d p.i.): 0.0

Source: PMC11187563, “The importance of tyrosines in multimers of cyclic RGD nonapeptides: towards αvβ6-integrin targeted radiotherapeutics” (RSC Medicinal Chemistry, 2024)
